Measured values reported in US20190040138A1 (AKESO BIOPHARMA, published 2019).
Residue numbers refer to the chain shown, from its start.

B1: humanized antibody 18A10 H2L2 (antibody, V domains shown)
VH: EVQLVQSGGGLVQPGGSLKLSCAASGFTFSSYGMSWVRQAPGKGLDWVATISGGGRDTYYPDSVKGRFTISRDNSKNNLYLQMNSLRAEDTALYYCARQKGEAWFAYWGQGTLVTVSS
VL: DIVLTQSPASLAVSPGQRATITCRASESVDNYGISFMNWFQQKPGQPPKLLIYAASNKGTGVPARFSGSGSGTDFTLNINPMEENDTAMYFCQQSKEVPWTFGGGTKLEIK
notes: also called H2L2 antibody
B2: humanized antibody 18A10 H1L1 (antibody, V domains shown)
VH: B1 VH with A40T, G42E
VL: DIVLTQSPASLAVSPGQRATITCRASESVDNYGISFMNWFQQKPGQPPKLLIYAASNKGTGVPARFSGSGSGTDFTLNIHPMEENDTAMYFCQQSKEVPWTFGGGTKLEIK
notes: also called H1L1 antibody
B3: humanized antibody 18A10 H3L3 (antibody, V domains shown)
VH: B1 VH with N78T, L93V
VL: DIVLTQSPASLAVSPGQRATITCRASESVDNYGISFMNWYQQKPGQPPKLLIYAASNKATGVPARFSGSGSGTDFTLNINPMEANDTAVYFCQQSKEVPWTFGGGTKLEIK
notes: also called H3L3 antibody

Columns and labels:
[1] = target: T1, PD-1-mIgGFc fusion protein; test: competitive ELISA on coated PD-1-mIgGFc; competitor PDL1-mIgG2aFc 0.3 µg/ml; antibody 1.5 µg/ml diluted 1:729; replicate 2
T1 construct: also called PD-1-mFc; PD-1-mIgGFc antigen
Protocol: (§1) A 96-well ELISA plate was coated with PD-1-mIgGFc antigen in a concentration of 0.5 μg/ml (50 μl per well) by incubation at 4° C. overnight.
(§2) The 18A10 H1L1, 18A10 H2L2 and 18A10 H3L3 antibodies each were diluted from 3 μg/ml in series by 1:3, with 7 gradient antibody solutions obtained for each antibody. The 7 gradient antibody solutions for each antibody and the blank PBS control (50 μl per well) were respectively added into the blocked 96-well ELISA plate for incubation at room temperature for 10 minutes.
(§3) The absorbance of solution in each well was measured with the microplate reader under a wavelength of 450 nm.

[2] = target: T2, PD-1 antigen stably expressed on the surface of BB007 cells (UniProt Q15116 25-288, limits assumed); test: flow cytometry on BB007 cells
T2 construct: whole, on cells; also called target protein PD-1 on the surface of the BB007 cell
Protocol: (§4) The binding efficiencies of H1L1, H2L2 and H3L3 antibodies to PD-1 antigen stably expressed on the surface of cells (named as BB007 cells) were determined by flow cytometry. The BB007 cells were obtained by routine trypsin digestion, and then washed with PBS buffer once, followed by dividing into several tubes, with 2×10⁵ cells per tube. After dilution into concentrations of 20 nM, 10 nM, 5 nM, 1 nM, 0.1 nM and 0 nM with the PBS buffer containing 1% BSA for each of the H1L1, H2L2 and H3L3 antibodies, individual antibodies in a volume of 100 μl were added into individual tubes and incubated on ice for 1 hour. After the mixture was washed with the PBS buffer once, 100 μl FITC-Goat-Anti-Human IgG (in 1:500 dilution) was added for each tube and incubated on ice for 1 hour, followed by addition of 300 μl the PBS buffer for detecting fluorescence signal with a FITC channel on the flow cytometer.

[3] = target: T1, PD-1-mIgGFc fusion protein; test: competitive ELISA on coated PD-1-mIgGFc; competitor PDL1-mIgG2aFc 0.3 µg/ml; antibody 1.5 µg/ml diluted 1:9; replicate 1
Protocol: as §1, §2
(§5) After the 96-well ELISA plate was washed with the PBST buffer for three times and gently patted to dryness, goat anti-mouse IgG-HRP (H+L) as a secondary antibody in 1:5000 dilution (50 μl per well) was added for incubation at 37° C. for 1 hour.

[4] = target: T1, PD-1-mIgGFc fusion protein; test: competitive ELISA on coated PD-1-mIgGFc; competitor PDL1-mIgG2aFc 0.3 µg/ml; antibody 1.5 µg/ml diluted 1:243; replicate 2
Protocol: as §1, §2, §5

[5] = target: T1, PD-1-mIgGFc fusion protein; test: ELISA on coated PD-1-mFc; antibody 1 µg/ml diluted 1:27; replicate 1
Protocol: (§6) An ELISA plate was coated with PD-1-mFc antigen in a concentration of 0.5 μg/ml (50 μl per well) by incubation at 4° C. overnight.
(§7) After the ELISA plate was washed with the PBST buffer for three times and gently patted to dryness again, TMB as a developer in 50 μl per well was added for incubation at room temperature for 5 to 10 minutes.
as §3

[6] = target: T1, PD-1-mIgGFc fusion protein; test: ELISA on coated PD-1-mFc; antibody 1 µg/ml diluted 1:243; replicate 2
Protocol: as §6
(§8) The ELISA plate coated with the PD-1-mFc antigen was blocked with 1% BSA in the PBS buffer at 37° C. for 2 hours, and washed with 1×PBST buffer containing 1% Tween-20 for three times, with gently patting to dryness.
as §3

[7] = target: T1, PD-1-mIgGFc fusion protein; test: ELISA on coated PD-1-mFc; antibody 1 µg/ml diluted 1:243; replicate 1
Protocol: as §6, §7, §3

[8] = target: T1, PD-1-mIgGFc fusion protein; test: ELISA on coated PD-1-mFc; antibody 1 µg/ml diluted 1:81; replicate 2
Protocol: as §6, §7, §3

[9] = target: T1, PD-1-mIgGFc fusion protein; test: ELISA on coated PD-1-mFc; antibody 1 µg/ml; replicate 1
Protocol: as §6, §7, §3

[10] = target: T1, PD-1-mIgGFc fusion protein; test: competitive ELISA on coated PD-1-mIgGFc; competitor PDL1-mIgG2aFc
Protocol: as §1, §2

[11] = target: T1, PD-1-mIgGFc fusion protein; test: competitive ELISA on coated PD-1-mIgGFc; competitor PDL1-mIgG2aFc 0.3 µg/ml; antibody 1.5 µg/ml diluted 1:729; replicate 1
Protocol: as §1, §2, §5

[12] = target: T1, PD-1-mIgGFc fusion protein; test: competitive ELISA on coated PD-1-mIgGFc; competitor PDL1-mIgG2aFc 0.3 µg/ml; antibody 1.5 µg/ml diluted 1:243; replicate 1
Protocol: as §1, §2, §5

[13] = target: T1, PD-1-mIgGFc fusion protein; test: competitive ELISA on coated PD-1-mIgGFc; competitor PDL1-mIgG2aFc 0.3 µg/ml; antibody 1.5 µg/ml diluted 1:3; replicate 2
Protocol: as §1, §2, §5

[14] = target: T1, PD-1-mIgGFc fusion protein; test: ELISA on coated PD-1-mFc
Protocol: as §6, §3

[15] = target: T1, PD-1-mIgGFc fusion protein; test: ELISA on coated PD-1-mFc; antibody 1 µg/ml diluted 1:3; replicate 1
Protocol: as §6, §7, §3

[16] = target: T1, PD-1-mIgGFc fusion protein; test: competitive ELISA on coated PD-1-mIgGFc; competitor PDL1-mIgG2aFc 0.3 µg/ml; antibody 1.5 µg/ml; replicate 1
Protocol: as §1, §2, §3

[17] = target: T2, PD-1 antigen stably expressed on the …; test: flow cytometry on BB007 cells; antibody 20 nM
Protocol: as §4

[18] = target: T2, PD-1 antigen stably expressed on the …; test: flow cytometry on BB007 cells; antibody 1 nM
Protocol: as §4

[19] = target: T1, PD-1-mIgGFc fusion protein; test: ELISA on coated PD-1-mFc; antibody 1 µg/ml diluted 1:9; replicate 2
Protocol: as §6, §8, §3

[20] = target: T2, PD-1 antigen stably expressed on the …; test: flow cytometry on BB007 cells; antibody 5 nM
Protocol: as §4

T1 sequence (chain, as listed by the source limits assumed): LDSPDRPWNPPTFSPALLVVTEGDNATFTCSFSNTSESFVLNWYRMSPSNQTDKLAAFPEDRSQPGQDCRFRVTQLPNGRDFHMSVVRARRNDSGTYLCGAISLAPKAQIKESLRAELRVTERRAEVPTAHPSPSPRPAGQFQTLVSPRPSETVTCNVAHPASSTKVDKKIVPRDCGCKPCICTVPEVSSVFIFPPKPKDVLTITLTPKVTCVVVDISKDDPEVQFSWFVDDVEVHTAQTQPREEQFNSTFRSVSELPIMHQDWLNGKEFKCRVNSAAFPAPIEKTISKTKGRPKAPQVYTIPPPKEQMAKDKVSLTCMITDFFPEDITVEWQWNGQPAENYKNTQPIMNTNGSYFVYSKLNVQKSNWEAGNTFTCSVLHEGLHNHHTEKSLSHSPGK
T2 sequence (Q15116 25-288 limits assumed): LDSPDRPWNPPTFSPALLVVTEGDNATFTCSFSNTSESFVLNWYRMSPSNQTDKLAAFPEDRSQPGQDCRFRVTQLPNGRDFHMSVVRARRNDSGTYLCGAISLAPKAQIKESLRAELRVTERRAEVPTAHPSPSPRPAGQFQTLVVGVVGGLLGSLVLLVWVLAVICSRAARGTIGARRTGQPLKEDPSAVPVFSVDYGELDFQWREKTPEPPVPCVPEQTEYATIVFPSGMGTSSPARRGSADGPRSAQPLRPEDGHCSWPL

Row | Binder | absorbance at 450 nm (competition) [1] | EC50 [2] | absorbance at 450 nm (competition) [3] | absorbance at 450 nm (competition) [4] | absorbance at 450 nm [5] | absorbance at 450 nm [6] | absorbance at 450 nm [7] | absorbance at 450 nm [8] | absorbance at 450 nm [9] | EC50 [10] | absorbance at 450 nm (competition) [11] | absorbance at 450 nm (competition) [12] | absorbance at 450 nm (competition) [13] | EC50 [14] | absorbance at 450 nm [15] | absorbance at 450 nm (competition) [16] | fluorescence intensity [17] | fluorescence intensity [18] | absorbance at 450 nm [19] | fluorescence intensity [20]
1 | B1 | 1.19 | 1.59 nM | 0.474 | 1.21 | 1.78 | 0.475 | 0.545 | 1.14 | 2.36 | 0.838 nM | 1.2 | 1.16 | 0.097 | 0.111 nM | 2.13 | 0.11 | 329 | 92.5 | 1.98 | 321
2 | B2 | 1.3 | 3.38 nM | 0.625 | 1.21 | 1.62 | 0.431 | 0.45 | 0.834 | 2.47 | 0.992 nM | 1.35 | 1.26 | 0.109 | 0.156 nM | 2.35 | 0.11 | 358 | 64.4 | 1.98 | 252
3 | B3 | 1.24 | 1.68 nM | 0.7 | 1.21 | 1.58 | 0.377 | 0.432 | 0.809 | 2.14 | 1.19 nM | 1.28 | 1.2 | 0.108 | 0.144 nM | 2.29 | 0.101 | 367 | 110 | 2.06 | 343
